Measurements: the DeepSol protein solubility set

Test: soluble on expression in E. coli; label from the status in PepcDB or PDB records

Sequence	soluble on expression in E. coli
MALGLKCFRMVHPTFRNYLAASIRPVSEVTLKTVHERQHGHRQYMAYSAVPVRHFATKKAKAKGKGQSQTRVNINAALVEDIINLEEVNEEMKSVIEALKDNFNKTLNIRTSPGSLDKIAVVTADGKLALNQISQISMKSPQLILVNMASFPECTAAAIKAIRESGMNLNPEVEGTLIRVPIPQVTREHREMLVKLAKQNTNKAKDSLRKVRTNSMNKLKKSKDTVSEDTIRLIEKQISQMADDTVAELDRHLAVKTKELLG	soluble
MIFSVDKVRADFPVLSREVNGLPLAYLDSAASAQKPSQVIDAEAEFYRHGYAAVHRGIHTLSAQATEKMENVRKRASLFINARSAEELVFVRGTTEGINLVANSWGNSNVRAGDNIIISQMEHHANIVPWQMLCARVGAELRVIPLNPDGTLQLETLPTLFDEKTRLLAITHVSNVLGTENPLAEMITLAHQHGAKVLVDGAQAVMHHPVDVQALDCDFYVFSGHKLYGPTGIGILYVKEALLQEMPPWEGGGSMIATVSLSEGTTWTKAPWRFEAGTPNTGGIIGLGAALEYVSALGLNNIAEYEQNLMHYALSQLESVPDLTLYGPQNRLGVIAFNLGKHHAYDVGSFLDNYGIAVRTGHHCAMPLMAYYNVPAMCRASLAMYNTHEEVDRLVTGLQRIHRLLG	soluble
GAMDAEGLALLLPPVTLAALVDSWLREDCPGLNYAALVSGAGPSQAALWAKSPGVLAGQPFFDAIFTQLNCQVSWFLPEGSKLVPVARVAEVRGPAHCLLLGERVALNTLARCSGIASAAAAAVEAARGAGWTGHVAGTRKTTPGFRLVEKYGLLVGGAASHRYDLGGLVMVKDNHVVAAGGVEKAVRAARQAADFALKVEVECSSLQEAVQAAEAGADLVLLDNFKPEELHPTATVLKAQFPSVAVEASGGITLDNLPQFCGPHIDVISMGMLTQAAPALDFSLKLFAKEVAPVPKIH	soluble
MKHHHHHHMTFPGDTAVLVLAAGPGTRMRSDTPKVLHTLAGRSMLSHVLHAIAKLAPQRLIVVLGHDHQRIAPLVGELADTLGRTIDVALQDRPLGTGHAVLCGLSALPDDYAGNVVVTSGDTPLLDADTLADLIATHRAVSAAVTVLTTTLDDPFGYGRILRTQDHEVMAIVEQTDATPSQREIREVNAGVYAFDIAALRSALSRLSSNNAQQELYLTDVIAILRSDGQTVHASHVDDSALVAGVNNRVQLAELASELNRRVVAAHQLAGVTVVDPATTWIDVDVTIGRDTVIHPGTQLLGRTQIGGRCVVGPDTTLTDVAVGDGASVVRTHGSSSSIGDGAAVGPFTYLRPGTALGADGKLGAFVEVKNSTIGTGTKVPHLTYVGDADIGEYSNIGASSVFVNYDGTSKRRTTVGSHVRTGSDTMFVAPVTIGDGAYTGAGTVVREDVPPGALAVSAGPQRNIENWVQRKRPGSPAAQASKRASEMACQQPTQPPDADQTP	soluble
MGHHHHHHSHAQHNYVISLTTEQKRRKHITEEFGKQNIPFEFFDAITPDIIEETAKKFNITLDRSPKAKLSDGEIGCALSHIVLWDLALENNLNYINIFEDDIHLGENAKELLEIDYISDDIHVLKLEANGKMFFKQPKSVKCDRNVYPMTVKQSGCAGYTVTAKGAKYLLELVKNKPLDVAVDSLV	soluble
MSLSPDSAHQQVSLRGGSGSEFMIVDITDGRLLGTIDSAKAMSQTHPGAVYLHQGESFVIDELDLEENLALARPELPDYTTYARSDTDIRITSAPLEDEVFDAGGGLWVANVEVQVTDRVTGYVTRLSDGTTLDATPLYLPPQILQTRAVAYTIDPLALEAMGIPAADIPGALHAAEHAAIGMLPLLATCDRWDIGGVSTALHADTGYPTVFVYDGMDGGAGFADTGFRRFAQWIEATFEVVRSCSCESGCPSCVQSPKCGNGNNPLDKAGAIKLLGAMVTLLGTSEGHHHHHH	not soluble
MAHHHHHHMKVKKKIVKKINKNSNVKIYKSSKHVNEVNNNTLTNNNEVKQNNEYYESFFIPKNLTEFNFKDNDKQLYYLMSLLNEIHDIFYIMLEQFKRKETNDENRDDQIYNYFLRYPVVRTILTQYRKQVLKGFTFNISLLSDDIKRSDFMDNIVKFGGLINNQDYNHLLTVNTFIENENIKNVSTSNLMWLERALYTWK	not soluble
HMVTLYTSPSSTSCRKARAWLEEHEIPFVERNIFSEPLSIDEIKQILRMTEDGTDEIISTRSKVFQKLNVNVESMPLQDLYRLINEHPGLLRRPIIIDEKRLQVGYNEDEIRRFLPRKVRSFQLREAQRLAN	soluble
MGSDKIHHHHHHMVMYLENPGKLDRKFFTESILRYTGYRRPEDKVPPKNGVDTGIISIGNGKVMAVTTDPFYFDPVFGYEDSAWFAYHILASDITTAGVYPEYMTVDLNLPISISNEEIARMWKTVHEEAYKYKTSIITGHTARYANTGFPMVGGATMFGFTDDDKYVTTAMARPGDIMIMTKTAGIEAASLLTRIFPNHVKKNLGEDKYRYGFELFRKLSTVDEAIQAIEFGTRKAITSMHDATEGGLLGAVYEVAEASGNGVSIDKEAIHVDDYVKEIHSLFGIDPLRSISEGTLLMTIDPEYADEFMKRLTKSGIDSYVIGKMTTKDEGIKFKDGSEPIGEPEKDPFWYAVEKSMKMGLS	not soluble
MTTLLRLATAGSVDDGKSTLIGRLLYDSKAVMEDQWASVEQTSKDRGHDYTDLALVTDGLRAEREQGITIDVAYRYFATPKRKFIIADTPGHIQYTRNMVTGASTAQLVIVLVDARHGLLEQSRRHAFLASLLGIRHLVLAVNKMDLLGWDQEKFDAIRDEFHAFAARLDVQDVTSIPISALHGDNVVTKSDQTPWYEGPSLLSHLEDVYIAGDRNMVDVRFPVQYVIRPHTLEHQDHRSYAGTVASGVMRSGDEVVVLPIGKTTRITAIDGPNGPVAEAFPPMAVSVRLADDIDISRGDMIARTHNQPRITQEFDATVCWMADNAVLEPGRDYVVKHTTRTVRARIAGLDYRLDVNTLHRDKTATALKLNELGRVSLRTQVPLLLDEYTRNASTGSFILIDPDTNGTVAAGMVLRDVSARTPSPNTVRHRSLVTAQDRPPRGKTVWFTGLSGSGKSSVAMLVERKLLEKGISAYVLDGDNLRHGLNADLGFSMADRAENLRRLSHVATLLADCGHLVLVPAISPLAEHRALARKVHADAGIDFFEVFCDTPLQDCERRDPKGLYAKARAGEITHFTGIDSPYQRPKNPDLRLTPDRSIDEQAQEVIDLLESSS	not soluble
MKIEVWSDFVCPFCYMGKRRLEIALNEFEYKTDVEISFKSFELDPSAKKEYSENIHELIAKKYKISVEQAKASNDQIVLQAEAIGLNYNFNKLIPTNTFDAHRLSQYAKTKGKMNELSEKIFKAYFVDSLNISDYKVLADLAEEVGISRDESLRILESNQYNEEVREDEKNASKLGIDAVPYFVFDDKYAVSGAQPAEVFLEALYKIDKE	not soluble
MGSDKIHHHHHHERHEFIIEVVGNAYLDDVMDWYQPSYGDYLVQAHPVIVLYYPDESYAYYERATFYEQYNDFVAAAGVIVDTADLKNDLGRIWNSYYPIYDVDVWWQADREEWQARVKGLTRDVNITTFFVVTFNGRDNYCEVVDIKDEGEIYLDNNGVYHLGPLSGVDGFAAFVQENPSRLTLESNTKILGAEVRWIK	not soluble
MLPSTMFLVHLPLSTNRLHCLRNTSLESCLCSFVHLNHPLHISDPVILISLHEAVRFSFAFSFPRGTLSIAYCLMSSVSTSSEAIMSTELLANYCHSSLHVCICISSFPNETGNHDSFPGAVVSISDQPTDQCKLAAKELPLRNLLECRFFDCMGEEDLINLGVIGTER	soluble
MGSDKIHHHHHHMYAETDFIALSALQHYVFCPRQCALIHLEQVWSENLYTAEGREMHERADSAVTSYREGVKVTRSVPLRSAVLGVSGVADVVEWHRREGGFEPFPVEYKRGKPKKHDADKVQLCAQAMCLEEMRSCAIPSGALFYGQTMRRLDVVFDEVLRSKTVAAAAGVHGLFSLGVTPHPEFGPKCKLCSLVDECLPEVLERHGSAKRYVQKLYRELSGEEI	not soluble
MVEKIERKSLAEQVYDQIKAEITSGAWKIGERIPKEADLMTQFGISRNTLREAIRALAHIGLLETKQGDGTFVRNNSELHAIMQKRVRESSVQEILEMRHALDREAVILACERRTDEDLKMLKKYKQLCYLANKDNDVTAFVKADSALHLTIVKAAHNDLLLDMYVNILEEIQFSITSTTEMNPAVNKHNGHATLVSAIEKRDKEGAAHEVTEYITLFKQIAAKNGDNK	not soluble
